Assay results published in article PMC9241815, “Role of the Two-Component System CiaRH in the Regulation of Efflux Pump SatAB and Its Correlation with Fluoroquinolone Susceptibility”.

Experiments:
[1] = molecular target: SatR (Streptococcus suis (WT strain, name not in the material)) (UniProt G9CHX9); experiment: BLI; conditions: EMSA: Beyotime EMSA binding buffer, 20 min, room temperature, 4% native PAGE; proteins dialyzed in 25 mM Tris pH 7.4, 150 mM NaCl, 5% glycerol, 0.5 mM EDTA …
[2] = molecular target: CiaR, phosphorylated (Streptococcus suis (WT strain, name not in the material)) (UniProt A0A0H3MUU9); experiment: BLI; conditions: EMSA: Beyotime EMSA binding buffer, 20 min, room temperature, 4% native PAGE; proteins dialyzed in 25 mM Tris pH 7.4, 150 mM NaCl, 5% glycerol, 0.5 mM EDTA …
SatR [3] = molecular target: T1, SatR (Streptococcus suis (WT strain, name not …, UniProt G9CHX9 1-149)); experiment: EMSA; 800 ng SatR; EMSA: Beyotime EMSA binding buffer, 20 min, room temperature, 4% native PAGE; proteins dialyzed in 25 mM Tris pH 7.4, 150 mM NaCl, 5% glycerol, 0.5 mM EDTA, 1 mM DTT; BLI (Octet RED96) conditions not in material; conditions: protein: recombinant; tags: C-terminal 6xHis (from primer; pET-30a(+)); chain copies: 2; label: biotin 3' end; blunt
SatR [4] = molecular target: T1, SatR; experiment: EMSA; 200-800 ng SatR; EMSA: Beyotime EMSA binding buffer, 20 min, room temperature, 4% native PAGE; proteins dialyzed in 25 mM Tris pH 7.4, 150 mM NaCl, 5% glycerol, 0.5 mM EDTA, 1 mM DTT; BLI (Octet RED96) conditions not in material; conditions: protein: recombinant; tags: C-terminal 6xHis (from primer; pET-30a(+)); chain copies: 2; label: biotin 3' end; blunt

satAB promoter (Octet)
Kd [1]: 61 nM
Kd [2]: 434 nM

B1: satAB internal fragment (EMSAneg-satR) (dsDNA)
DNA 1: CTCGCTTGGCCTTGGTGACCATTGCTTCTACGCCAGTTGCCTTGATTGCCTTGGTCGTT
DNA 2: AACGACCAAGGCAATCAAGGCAACTGGCGTAGAAGCAATGGTCACCAAGGCCAAGCGAG
binding result (SatR [3]): no binding

B2: satRAB promoter EMSA probe (dsDNA)
DNA 1: TTGACAATAGTTCTTAAGAGAACTATAATAGTTCTCATGGTAATTATTTTCGTAGAAAG
DNA 2: CTTTCTACGAAAATAATTACCATGAGAACTATTATAGTTCTCTTAAGAACTATTGTCAA
binding result (SatR [4]): binds
